B1: dsAgCHS2-f2: dsRNA synthesized using residues 3,331 to 3,719 of SEQ ID NO: 3 as the template (nucleic acid, listed as Anopheles gambiae)
DNA: GCCAGCGCCGAAAAGGAGCAAATCGCACAAATTGCGGCATCGCTCAGCGAAATAAGTGTAAAAATGAAGGCACTGGAAATGAAATTAACCGGCAACGTCAGCGTAATGAGATCAGACGACGAAGATGATGACATCGGTAGTCTCGATATGCATCGTCCGGAAGGTAACCGTGGCCCATCCTCGCCATCCTCCACCTCGGGCGCCGCCTCCCCGATCCAGACGGTGAAAAATGATTCCCTCGAAGAGCCCGAGAAGCAGATTAACTATCTGCCGGATTGGTTGTACGACGTGGATTTGAAAAACGGCGACACTGAGACGATCTCCGCCTCGGAGGAGCAATTCTGGATTGAGCTGATCGAGAAGTATCTGAAGCCGCTCGATCTGTCGGA
modifications: double-stranded RNA
B2: dsAgCHS1-f1: dsRNA synthesized using residues 2,267 to 2,635 of SEQ ID NO: 1 as the template (nucleic acid, listed as Anopheles gambiae)
DNA: TGAAACGCACATCTTCTTCGATGACGCGTTCGAAATTTCGGACCACAGCGACGAGGACATTCAGTGTAATCGGTTCGTGAAGATTCTTGTCGACACCATCGACGAAGCTGCCTCGGAAGTGCATCAGACCAACATTCGATTGAGACCGCCCAAAAAGTACCCAACACCGTACGGTGGACGACTGGTGTGGACGCTGCCCGGTAAAACGAAGATGATTGCCCACCTGAAGGACAAGGATCGCATCCGGCACCGTAAGCGTTGGTCTCAGGTCATGTACATGTACTATCTGCTCGGCCACCGGCTGATGGAGCTGCCGATTTCCGTCGACCGTAAGGAGGTGATGGCGGAAAACACCTACCTGCTGACGCT
modifications: double-stranded RNA
B3: dsAgCHS1-f2: dsRNA synthesized using residues 3,812 to 4,202 of SEQ ID NO: 1 as the template (nucleic acid, listed as Anopheles gambiae)
DNA: CAAAACGACGGACGAGAAGGCGCAGCTGATTCACATTGCCGATGCGCTGGACGCCATTACGAAGAAGATTGAGAATCTGGAAAAGCACATCGACCCGCACGGACATCATACGCGCAAGCGCACTGCGTCGGCGGGGTCGAAGGATCACCATCTCGGCTCGGTGGCGGAGGATACGGAGGACGATGATGAGGATGAAGATTCGGAGACTTCGACGCTGCAGCGCGACGAGCGCGACTTCCTCACCAACCCGTACTGGATCGAGGATCCGGATCTGAAGAAGGGCGAGGTGGACTTTATTTCCAGCACCGAGATCCAGTTCTGGAAGGACCTGATCGATAAGTACCTATACCCGATCGATCAAAACAAGGAGGAACAGGCACGTATTGCGCAC
modifications: double-stranded RNA
B4: dsAgCHS2-f1: dsRNA synthesized using residues 3,846 to 4,235 of SEQ ID NO: 3 as the template (nucleic acid, listed as Anopheles gambiae)
DNA: ACACATCGAGTGGTGGTTCAACGTGAAGAACAAGATCAGCTTTGACGAAAGCACGGTCGAGATCATGATCCGGCGCGAGTACCTGGAGCTCGAACCGATCGGTTTGGTGTTTGTGATGTTCTTCGGTTTGATTCTCATCATTCAGTTTGTGGCCATGCTGATGCATCGGTTCGGTACCATCTCCCAGATTCTTGCCTCCACCGAGCTGAACTGGTACTGTTCGAAGAAGGCTAAGGATATGTCACTCGATGCGGAACTGCGCGAGAATGCGGTCGAAATTGCACGTCGACTGCAGCGCCCCAAACCGCAGTGGGACGAGGAAGATCTAGAGGACGAGCAGAAAGCTATTGGACGTCGCGACACGATCCATCGCATTCTCTACCAGCACAA
modifications: double-stranded RNA

The values that follow come from patent US8841272B2, “Double-stranded RNA-based nanoparticles for insect gene silencing” (Kansas State University Research Foundation, priority 2011, dated 2014).

One data set has as its system AgCHS1. The data set can be described thus: qPCR of AgCHS1 transcript level in mosquito larvae after larval feeding. The following applies: 3rd-instar larvae fed once a day for 4 days on dsRNA nanoparticles, vs GFP dsRNA nanoparticles. The data set is classed as in vivo, Anopheles gambiae. The method, then:
(§1) A group of 15-20 3rd-instar mosquito larvae was transferred into a 500-ml glass beaker containing 100 ml of deionized water. One sixth of the gel slices that were prepared from 32 μg of dsRNA, as described above, were added into each beaker. Approximately an equal amount of the gel slices was used to feed the larvae once a day for a total of four days. Any potential phenotypic changes were visually examined in the larvae during the experiment. The transcript levels of AgCHS1 or AgCHS2, chitin contents, and other phenotypic changes were assessed in the larvae at the end of the experiment (i.e., day 4).
(§2) Total RNA was extracted from mosquito larvae with TRIzol reagent (Invitrogen, Carlsbad, Calif.) and 3.5 μg of total RNA was used for first strand cDNA synthesis using the First Strand cDNA Synthesis kit (Fermentas, Glen Burnie, Md.). The first strand cDNA was then used as template for PCR and qPCR. A gene encoding ribosomal protein S3, AgRPS3, was used as an internal reference. PCR was performed with a PCR Master Mix kit (Fermentas). The qPCR was performed using a Maxima SYBR Green qPCR Master Mix (Fermentas), and the 2^−ΔΔCT method was used to calculate the relative levels of AgCHS1 and AgCHS2 transcripts in the mosquito larvae fed on the food containing the AgCHS1 or AgCHS2 dsRNA-based nanoparticles as compared with the control larvae fed on the food containing the GFP dsRNA-based nanoparticles.
(§3) For data obtained from qPCR, relative expression levels in percentage were calculated by dividing the relative expression value (REV) of each gene in the AgCHS dsRNA-treated larvae by the REV of the same gene in the GFP dsRNA-treated larvae. After the percentage data of the relative AgCHS expression were transformed using arcsine square root transformation, the transformed data were subjected to ANOVA followed by Fisher's least significant difference (LSD) multiple comparisons to separate the means among the treatments using ProStat software (Poly Software International, Pearl River, N.Y.).
(Real-time PCR tracks product formation cycle by cycle.)
Turning to B1, the “repression of the transcript level of AgCHS1” value (shortened to “repression … of AgCHS1”) was “none of these AgCHS2 dsRNAs repressed”.

Regarding B2, the “repression … of AgCHS1” value was 62.8%.

Turning to B3, the “repression … of AgCHS1” value came out at 52.4%.

For the molecule B4, the “repression … of AgCHS1” value is recorded as “none of these AgCHS2 dsRNAs repressed”.

A further data set concerns AgCHS2. Put plainly: qPCR of AgCHS2 transcript level in mosquito larvae after larval feeding. It is filed as in vivo, Anopheles gambiae. The following applies: 3rd-instar larvae fed once a day for 4 days on dsRNA nanoparticles, vs GFP dsRNA nanoparticles. As for the experimental part:
as §1, §2, §3
In the case of B1, the “repression of the transcript level of AgCHS2” value (“repression … of AgCHS2” for short) turned out to be 48.8%.

As to B2, the “repression … of AgCHS2” value was 48.4%.

As to B3, the “repression … of AgCHS2” value is 57.9%.

For the molecule B4, the “repression … of AgCHS2” value is listed as 63.4%.
